Data as given in the supplement of paper PMC9170038.

System: MS2 coat protein
Test: apparent KD of MS2 coat protein; higher = weaker reporter binding
Details: Eterna round: R107
How it was run: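 SNAP-549-labelled MS2 coat protein was titrated onto designed RNA switches that had been transcribed on-chip from Illumina sequencing clusters. Amounts doubled from 0.7 or 1.5 nM to 3 µM in 100 mM Tris-HCl pH 7.5, 80 mM KCl, 4 mM MgCl2, with constant ligand or without. Apparent KD is the median per design of normalised cluster binding-curve fits.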

[1] = input ligand: theophylline 20 uM
[2] = input ligand: tryptophan 2.4 mM
[3] = input ligand: theophylline 2 mM

Row | Sequence | apparent KD of MS2 coat protein (input ligand: arginine 13.2 mM) | apparent KD of MS2 coat protein [1] | apparent KD of MS2 coat protein [2] | apparent KD of MS2 coat protein [3] | apparent KD of MS2 coat protein (input ligand: none)
1 | UAUAAAAUAACAGAUACCAGCGUGUUAUAAAACAUGAGGAUCACCCAUGUAGUGAUCAAGCGCCCUUGGCAGCUGGUAUUUUAUG [7.C] | 92.3 nM | 166 nM | 58.1 nM |  | 
2 | UAUAAUAACUCGGCCGCCACUGGCACAUGAGGAUCACCCAUGUCUAUAUAUAAUAUAUAGUUGCACAGGACCGGGAGAUAUAUAU [Exclusion - Tryptophan B] | 10.5 nM | 12.5 nM |  | 10.5 nM | 
3 | UAUAUAUAUAGUGAUACCAGCAGAGAAAACGUUUAUCCUAACAUGAGGAUCACCCAUGUAUGCCCUUGGCAGCGUUAUAUAUAUA [8.E] | 21.2 nM | 29.1 nM | 21.9 nM |  | 
4 | UAUAUAUAUAUGGAUACCAGCAGAGAAAACGUUUAUCCUAACAUGAGGAUCACCCAUGUAUGCCCUUGGCAGCUGUGUAUAUAUA [8.H] | 16.7 nM | 26.5 nM | 19.2 nM |  | 
5 | UAUAUAUAUAUUGAUACCAGCAGAGAAAACAUAUAUCCUAACAUGAGGAUCACCCAUGUAUGCCCUUGGCAGCGAUAUAUAUAUA [8.A] | 24.9 nM | 28.1 nM | 23.5 nM |  | 
6 | UAUAUAUAUAUUGAUACCAGCAGAGAAAACGUUUAUCCUAACAUGAGGAUCACCCAUGUAUGCCCUUGGCAGCGAUAUAUAUAUA [8.C] | 22.2 nM | 31.3 nM | 21.7 nM |  | 
7 | UAUCGUCAGACGGCCGCCACUAGAACAUGAGGAUCACCCAUGUAAGUGGCUGGUUCAUGGGUGUCUAGGACCGGGUCUGACGAAU [(Trp1)-(Ms2)-(T)'-(M)'-(Trp2)_Design20] | 14.8 nM | 21.2 nM |  | 17.6 nM | 
8 | UAUGUCGCCGAAGAUACCAGCCUGGCAAGCAACAUGAGGAUCACCCAUGUAAUUACUUAUGGCCCUUGGCAGCUUCAAAUAGAGC [theeternabot_sameState_MS2_Theo_B_42] | 10.8 nM | 15.5 nM | 12.4 nM |  | 
9 | UAUUUGGUGCGCGAGCGCUGGAUAAUUGAUACCAGUGAAGAAGAGCGCCCUUGGCAGCGAAUCCUAACAUGAGGAUCACCCAUGU [5.R] | 33.1 nM | 54.1 nM | 38.7 nM |  | 
10 | UCACAUGAGGAUCACCCAUGUAAAGUUGAAGGAGCGAUCAUUAGGUCAGGUAGGUCGCAACACAUGAGGAUCACCCAUGUUGUCC [DOUBLE!!! :-D] | 25.7 nM | 49.9 nM | 38.3 nM | 47.1 nM | 40.8 nM
11 | UCAGUGCAAGGAAGGAGCGGGUACAUGAGGAUCACCCAUGUGCAAGUGGUGAGCGUCCGUGCCCAGGUAGGUCGCCUAGCCUGGU [Quisso] | 56 nM | 180 nM | 101 nM | 149 nM | 109 nM
12 | UCAUGCAGGUCGGCCGCCACUACACACAUGAGGAUCACCCAUGUAGUUACUGGGUGAAGUGGCAGUAGGACCGGGACCUGCACAU [Brourdmod16] | 253 nM | 369 nM | 460 nM | 452 nM | 607 nM
13 | UCCAGACAUGAGGAUCACCCAUGUUGUGAUACCAGAACCGUGGAGUUCCCUUGGCAGCACUAAGAAGUUCCUGGAUCAGCUAGCG [theeternabot_sameState_MS2_Theo_A_9] | 29.9 nM | 36.2 nM | 30 nM |  | 
14 | UCCUCCUCCGCAAGGAGGAGGAGUUGCGAUACCAGCACGGAAACGUGCCCUUGGCAGCGCACAUGAGGAUCACCCAUGUCAUGUU [#1 Exclusion - Theophylline A Attempt #9 (HarryS)] | 18.7 nM | 23.8 nM | 16.3 nM |  | 
15 | UCGAAUGCGGCGGCCGCCACUCGCGGAUAACGAUAGCUUAACAUGAGGAUCACCCAUGUGUCAUGGAGGACCGGGCCCAUACGGU [kmkmullin] | 13.5 nM | 23.2 nM | 14.3 nM | 18.7 nM | 17 nM
16 | UCGCACAUGAGGAUCACCCAUGUACUAGAUACCAGUGACGCGGUGCACCCUUGGCAGCUGGUGCUGAGUGAUGGUUCCCUCGGCA [Exclusion Theophylline A GF8] | 53.5 nM | 137 nM | 112 nM |  | 
17 | UCGCCCGGGUCGGCCGCCACUGCGGUGAUGUGACAUGAGGAUCACCCAUGUUGUCAUGUGGCACAUAGGACCGGGACCCGGGCGA [Exclusion - Tryptophan B Attempt #4 (HarryS)] | 23.2 nM | 45.3 nM |  | 40.3 nM | 
18 | UCGCUCUGGGUGAAUCCCAGAGAUGUGGAAGGAGCGGACGAAAGUCCAGGUAGGUCGCCAUCGAACAUGAGGAUCACCCAUGUAC [Same State - Arginine A (Freestyle 26)] | 42.7 nM | 77.5 nM | 46.2 nM | 75.6 nM | 46 nM
19 | UCGCUCUGGGUGAAUCCCAGAGAUGUGGAAGGAGCGGAGGAAACUCCAGGUAGGUCGCCAUCGAACAUGAGGAUCACCCAUGUAC [Same State - Arginine A (Freestyle 28)] | 35.6 nM | 60.7 nM | 46.4 nM | 66.4 nM | 56.8 nM

Row | Sequence | apparent KD of MS2 coat protein (input ligand: arginine 13.2 mM) | apparent KD of MS2 coat protein [1] | apparent KD of MS2 coat protein [2] | apparent KD of MS2 coat protein [3] | apparent KD of MS2 coat protein (input ligand: none)
20 | UCGGAGAAGUCGGCCGCCACUGAACUCUUGUUCUACAUGAGGAUCACCCAUGUUCCUUUGUUUAACAGGACCGGGACUUAUACGA [JR_SSTryptoB_Sub009] | 108 nM | 283 nM |  | 346 nM | 
21 | UCGGGCAGAGCGGCCGCCACUGUUUGGCAUGCGGAUGAAGGAACAUGAGGAUCACCCAUGUAGAUUAGGACCGGGCUAGCGGAGA [sscsmullin] | 12.1 nM | 42.1 nM | 16.3 nM | 18.4 nM | 17.2 nM
22 | UCGUGUGUUUCGGAUACCAGUGAAAUCGAUACAUGAGGAUCACCCAUGUGAGAGGAUGUACACCCUUGGCAGCUGUCUGUAGCGG [asczmullin] | 26.9 nM | 38 nM | 38.3 nM |  | 
23 | UGAAAGUAGGGAAGGAGCGCUACAACAUGAGGAUCACCCAUGUUAUGAGGAUCACCCAUGUGGCAGGUAGGUCGCCCAAAACAUG [Same State Arginine B] | 41.3 nM | 95.1 nM | 68 nM | 92.7 nM | 77 nM
24 | UGACAUGAGGAUCACCCAUGUUUAGAUGAACGAGGACCGGUACGGCCGCCACUCGAUAAGUGGAAAGAGCGAGGGAUCGCAUGCU [Same State Trp A GF5] | 12.1 nM | 17.5 nM | 14.4 nM | 12.9 nM | 12.9 nM
25 | UGACAUUGCUCAGAUACCAGACAUGAGGAUCACCCAUGUACCAAGGUAAAGAAAUAACGUGUCCCUUGGCAGCUGAGCAAUGUCU [TheoBX 1 #MS2Left #Theo2] | 10.6 nM | 14.8 nM | 10.4 nM |  | 
26 | UGACAUUGCUCAGAUACCAGACAUGAGGAUCACCCAUGUGCCAACGUACAAAUAAUAAAUGUCCCUUGGCAGCUGAGCAAUGUCU [TheoBX 15 #MS2Left #Theo2] | 16.2 nM | 19.9 nM | 11.4 nM |  | 
27 | UGACGAUACCUGGAUACCAGCGACAUGAGGAUCACCCAUGUAUGAGGAUCAGCCAUGUUAUGCCCUUGGCAGCCACGAAGGUCUU [CSCMULLIN] | 28.9 nM | 55.4 nM | 33.1 nM |  | 
28 | UGAUUGAACGGAAGGAGCGUGAAGAGAGAGAAACAUGAGGAUCACCCAUGUAGAGAGAGAUCACAGGUAGGUCGCCGAGAGAUUG [11.C] | 17.8 nM | 20.8 nM | 17.1 nM | 21 nM | 15 nM
29 | UGCAUCAUAAUCAUGUUGGUGCUAGGUGAUACCAGCAUCGAAAGAUGCCCUUGGCAGCACCAACAUGAGGAUCACCCAUGUAAUA [(MT)''-(M)'-(T')-(Theo)-(Ms2)_Design1/22_2] | 69.2 nM | 165 nM | 27 nM |  | 
30 | UGCGUACAUGAGGAUCACCCAUGUACUGAAGGAGCGGGAGGCAUCUCAGGUAGGUCGCAGACAUGAGGAUCACCCAUGUAGUGGU [Exclusion Arginine A GF 18] | 16.1 nM | 44.6 nM | 26.6 nM | 38.3 nM | 26.9 nM
31 | UGGGUAGCAUAGCUUGAUAGCUACACUGAAGGAGCGAGGAUAACCUCAGGUAGGUCGCAGACAUGAGGAUCACCCAUGUAGAUGG [Same State Arginine A GF18] | 63.9 nM | 359 nM | 276 nM | 231 nM | 186 nM
32 | UGUAACAUGAGGAUCACCCAUGUGAGUGAUACCAGAUUAGUAGUAGUCCCUUGGCAGCAUAUUGGGCGAGUGUAUAGUCUAUGCG [Same State - Theophylline A (Freestyle 10)] | 94 nM | 250 nM | 205 nM |  | 
33 | UGUAUGGACUGAAGGAGCGCCUCAAAUAACAUGAGGAUCACCCAUGUGGACAAAGUCCUUGGGCAGGUAGGUCGCAGUCCAUACU [ArgBX 5 #StaticStem #MS2Late] | 49.1 nM | 82.9 nM | 82.2 nM | 92.3 nM | 72.4 nM
34 | UGUAUGGACUGAAGGAGCGGAAAAUAACCAUGAGGAUCACCCAUGGAAUAGGCGAAAGCCAUCCAGGUAGGUCGCAGUCCAUACU | 23.4 nM | 32.4 nM | 31.6 nM | 36.6 nM | 31.6 nM
35 | UGUAUGGACUGAAGGAGCGGGUUGAUAAUCUGAGGAUCACCCAGGUAAAAGGCGAAAGCCACCCAGGUAGGUCGCAGUCCAUACU | 23.8 nM | 38.9 nM | 36.4 nM | 41.8 nM | 34 nM
36 | UGUAUGUGAUCUGAUACCAGAGUGAAUAACCUGAGGAUCACCCUGGUAAGGCGAAAGCCACUCCCUUGGCAGCAGAUCGCAUACU | 121 nM | 100 nM | 136 nM | 26.6 nM | 136 nM
37 | UGUAUGUGAUCUGAUACCAGUCCAACUGGUAAAACCUGAGGAUCACCCGGGUAAAAUUGGGACCCUUGGCAGCAGAUCGCAUACU | 201 nM | 285 nM | 683 nM | 26 nM | 475 nM
38 | UGUCAUGGAAACAUGACAGGUUCUACCGGUCGAGGACCGGUACGGCCGCCACUCGAUUGGUGGCACAUGAGGAUCACCCAUGUUA [SS Tryp A #15] | 24.1 nM | 39.6 nM |  | 30.3 nM | 
